Measurements as given in patent US8372950B2, “IgG binding peptide” (Kagoshima University, priority 2006, dated 2013).

Test: molecular sieve chromatography of acid-denatured MRA
Type: physicochemical
Conditions: acid treated pH 2.7, 30° C., 10 minutes, purified on IMGpep-4K6R column, FIG. 15C
Procedure: First, 20 μl of 1 M glycine-HCl (pH 2.7) was added to 200 μl of humanized anti-human IL-6 receptor IgG antibody (MRA) (2000 μg/ml, PBS solution). The solution was incubated for 10 minutes at 30° C. and then 30 μl of 1 M Tris-HCl (pH 8.7) was added thereto for neutralization to prepare an acid-treated antibody sample. Also, a biotinylated IMGPep-4K6R peptide-immobilized column was prepared in a manner similar to that in Example 10. An acid-treated antibody sample was injected at a flow rate of 0.4 ml/min to the column and then gradient elution was carried out using from 20 mM phosphate buffered saline (PBS, pH 7.0) containing 0.1M NaCl to 0.1M glycine-HCl (pH 2.5) containing 0.1M NaCl. The thus eluted IgG was a purified acid-denatured humanized anti-human IL-6 receptor IgG antibody (MRA).
Subsequently, the purified acid-denatured MRA was subjected to molecular sieve chromatography using a HiLoad Sperdex 200 16/60 column (GE Healthcare). Similarly, untreated MRA, an acid-treated antibody sample, and a flow-through fraction (undenatured MRA) obtained via injection of an acid-treated antibody sample to a biotinylated IMGPep-4K6R peptide-immobilized column, were also separately subjected to molecular sieve chromatography using a HiLoad Sperdex 200 16/60 column (GE Healthcare). […]

Substance: MRA: Humanized anti-human IL-6 receptor monoclonal IgG antibody, Chugai Pharmaceutical
- monomers in purified acid-denatured MRA: approximately 65%
